Source: publication PMC3413154
Residue numbers refer to the chain shown, from its start.

How the values were obtained:
Experiment in all cases: EMSA
L2 NTase domain = target: T1, L2 NTase domain (Trypanosoma brucei, UniProt P86925 21-285)
T1 sequence: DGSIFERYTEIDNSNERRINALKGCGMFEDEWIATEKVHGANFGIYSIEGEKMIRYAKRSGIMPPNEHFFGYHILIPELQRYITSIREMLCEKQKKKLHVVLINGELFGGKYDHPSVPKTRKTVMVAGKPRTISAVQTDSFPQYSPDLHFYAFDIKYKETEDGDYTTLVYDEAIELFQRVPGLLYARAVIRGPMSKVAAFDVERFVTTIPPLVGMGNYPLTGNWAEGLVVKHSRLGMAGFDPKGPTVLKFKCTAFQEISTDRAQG

[1] = target: T2, A1 L2BD;L2 RNA-editing ligase (full length, mature) (Trypanosoma brucei;Trypanosoma brucei, UniProt Q95W15;P86925 196-331;21-416, |)
T2 sequence 1: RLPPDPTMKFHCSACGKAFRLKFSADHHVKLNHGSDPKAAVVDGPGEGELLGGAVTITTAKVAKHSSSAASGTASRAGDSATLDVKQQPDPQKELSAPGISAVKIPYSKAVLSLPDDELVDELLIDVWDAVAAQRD
T2 sequence 2: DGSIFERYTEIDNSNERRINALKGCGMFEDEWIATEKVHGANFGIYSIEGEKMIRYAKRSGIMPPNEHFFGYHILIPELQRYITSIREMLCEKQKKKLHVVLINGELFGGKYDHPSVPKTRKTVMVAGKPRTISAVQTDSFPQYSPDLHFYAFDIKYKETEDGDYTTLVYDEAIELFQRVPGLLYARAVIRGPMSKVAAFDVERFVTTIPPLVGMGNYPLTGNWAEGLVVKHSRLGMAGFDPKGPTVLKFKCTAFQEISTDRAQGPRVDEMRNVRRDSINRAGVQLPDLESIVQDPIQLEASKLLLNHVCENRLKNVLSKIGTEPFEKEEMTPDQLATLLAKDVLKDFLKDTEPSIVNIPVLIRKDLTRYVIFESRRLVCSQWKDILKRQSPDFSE

[2] = target: T3, A1 (full length, mature);L2 A1BD (Trypanosoma brucei;Trypanosoma brucei, UniProt Q95W15;P86925 196-762;308-416, |)
T3 sequence 1: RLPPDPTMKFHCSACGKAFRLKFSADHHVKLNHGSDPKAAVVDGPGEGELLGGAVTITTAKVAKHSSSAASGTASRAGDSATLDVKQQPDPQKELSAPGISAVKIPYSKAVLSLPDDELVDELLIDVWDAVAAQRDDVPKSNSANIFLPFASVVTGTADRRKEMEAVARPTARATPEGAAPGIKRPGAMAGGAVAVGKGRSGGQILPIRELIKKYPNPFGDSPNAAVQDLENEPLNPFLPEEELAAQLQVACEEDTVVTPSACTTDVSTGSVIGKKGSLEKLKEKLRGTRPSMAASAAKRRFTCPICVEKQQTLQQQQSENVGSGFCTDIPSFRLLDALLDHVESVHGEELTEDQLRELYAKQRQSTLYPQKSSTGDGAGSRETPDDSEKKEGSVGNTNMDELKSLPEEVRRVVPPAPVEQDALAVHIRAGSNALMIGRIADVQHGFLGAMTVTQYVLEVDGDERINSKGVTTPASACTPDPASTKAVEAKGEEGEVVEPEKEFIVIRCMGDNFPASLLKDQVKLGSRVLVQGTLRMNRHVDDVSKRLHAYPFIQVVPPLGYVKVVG
T3 sequence 2: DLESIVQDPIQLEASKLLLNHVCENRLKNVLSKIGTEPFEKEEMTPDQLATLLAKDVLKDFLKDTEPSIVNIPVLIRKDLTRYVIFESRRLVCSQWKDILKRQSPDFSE

[3] = target: T4, A1 (full length, mature);L2 RNA-editing ligase (full length, mature) (Trypanosoma brucei;Trypanosoma brucei, UniProt Q95W15;P86925 196-762;21-416, |)
T4 sequence 1: T3 sequence 1
T4 sequence 2: T2 sequence 2

[4] = target: T5, A1 R734E;L2 RNA-editing ligase (full length, mature) (Trypanosoma brucei;Trypanosoma brucei, UniProt Q95W15;P86925 196-762;21-416, R734E|)
T5 sequence 1: T3 sequence 1 with R539E
T5 sequence 2: T2 sequence 2

[5] = target: T6, A1 R731E;L2 RNA-editing ligase (full length, mature) (Trypanosoma brucei;Trypanosoma brucei, UniProt Q95W15;P86925 196-762;21-416, R731E|)
T6 sequence 1: T3 sequence 1 with R536E
T6 sequence 2: T2 sequence 2

[6] = target: T7, A1 R703E;L2 RNA-editing ligase (full length, mature) (Trypanosoma brucei;Trypanosoma brucei, UniProt Q95W15;P86925 196-762;21-416, R703E|)
T7 sequence 1: T3 sequence 1 with R508E
T7 sequence 2: T2 sequence 2

[7] = target: T8, A1Δ (L23 deletion);L2 RNA-editing ligase (full length, mature) (Trypanosoma brucei;Trypanosoma brucei, UniProt Q95W15;P86925 196-657+=GASG+696-762;21-416, internal_change|)
T8 sequence 1: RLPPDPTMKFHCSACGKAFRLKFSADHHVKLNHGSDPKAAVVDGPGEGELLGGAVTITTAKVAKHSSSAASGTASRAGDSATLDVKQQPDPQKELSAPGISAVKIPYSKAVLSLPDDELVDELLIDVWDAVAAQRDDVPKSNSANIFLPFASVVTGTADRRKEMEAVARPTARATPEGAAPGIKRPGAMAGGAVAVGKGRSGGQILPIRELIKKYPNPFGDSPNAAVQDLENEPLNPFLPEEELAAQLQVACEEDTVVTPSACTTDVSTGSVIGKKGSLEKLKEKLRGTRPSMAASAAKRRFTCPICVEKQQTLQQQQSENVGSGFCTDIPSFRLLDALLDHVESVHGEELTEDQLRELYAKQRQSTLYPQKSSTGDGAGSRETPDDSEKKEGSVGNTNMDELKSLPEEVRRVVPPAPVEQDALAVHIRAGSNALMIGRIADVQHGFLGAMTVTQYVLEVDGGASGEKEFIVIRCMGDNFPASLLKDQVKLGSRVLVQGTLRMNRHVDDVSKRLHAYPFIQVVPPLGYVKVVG
T8 sequence 2: T2 sequence 2

B1: 26-mer nicked dsRNA (dsRNA)
RNA 1: AUGAGACGUAGGUU
RNA 2: UUAUCGGAGUUC
RNA 3: GAACUCCGAUAAAACCUACGUCUCAU
B1: no binding (L2 NTase domain); no binding [1]; no binding [2]. B1: binds [3]; no binding [4]; no binding [5]. B1: no binding [6]; binds [7].
